# Measured values as given in patent publication US20220194999A1 (Janssen / Centocor, published 2022).
# Experiments:
# [1] = molecular target: T1, HLA-A*02:01 class I complex (conditional p*HLA*02:01, biotinylated heavy chain with beta2-microglobulin) (human, biotinylated heavy chain); assay: UV peptide exchange, HLA class I ELISA, % of Pos peptide;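 for Average %: Streptavidin-captured HLA complexes after exchange detected via HRP anti-human B2M antibody, absorbance read, colour scales with intact complex, normalized to exchange control peptide as 100%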;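 for Exch I (%): Streptavidin-captured HLA complexes after exchange detected via HRP anti-human B2M antibody, absorbance read, colour scales with intact complex, normalized to exchange control peptide as 100%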;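 for Exch II (%): Streptavidin-captured HLA complexes after exchange detected via HRP anti-human B2M antibody, absorbance read, colour scales with intact complex, normalized to exchange control peptide as 100%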
# T1 construct: UV-labile peptide p* is cleaved and exchanged for the test peptide; also called HLA 2.1
# Text: (§1) The HLA class I ELISA is an enzyme immunoassay based on the detection of beta2-microglobulin (B2M) of (peptide-stabilized) HLA class I complexes. To this end streptavidin is bound onto polystyrene microtiter wells. After washing and blocking, HLA complex present in exchange reaction mixtures or ELISA controls is captured by the streptavidin on the microtiter plate via its biotinylated heavy chain. Non-bound material is removed by washing. Subsequently, horseradish peroxidase (HRP)-conjugated antibody to human B2M is added. […] In the latter case B2M is removed during the washing step. After removal of non-bound HRP conjugate by washing, a substrate solution is added to the wells. A colored product is formed in proportion to the amount of intact HLA complex present in the samples. After the reaction has been terminated by the addition of a stop solution, absorbance is measured in a microtiter plate reader. The absorbance is normalized to the absorbance of an exchange control peptide (represents 100%). Also, suboptimal HLA binding of peptides with a moderate to low affinity for HLA class I molecules can be detected by this ELISA technique
# (§2) Coating wells of two NUNC MaxiSorp™ 96-well ELISA plates: only the contents of one coating buffer capsule were dissolved in 100 mL of distilled water (0.05 M carbonate-bicarbonate buffer, pH 9.6 at 25° C.). 46 μL of Streptavidin stock solution were added to 23 mL coating buffer. 100 μL of the Streptavidin stock solution were added to all wells. Each microtiter plate was covered with an adhesive seal and incubated overnight at room temperature (18-25° C.).
# [2] = molecular target: T1, HLA-A*02:01 class I complex …; assay: UV peptide exchange, HLA class I ELISA; high end of the group, member by Table 4
# Text: as §1, §2
# [3] = molecular target: T1, HLA-A*02:01 class I complex …; assay: UV peptide exchange, HLA class I ELISA, % of Pos peptide; remark: listed apart in the source
# [4] = molecular target: T1, HLA-A*02:01 class I complex …; assay: UV peptide exchange, HLA class I ELISA; low end of the group, member by Table 4
# Text: as §1, §2
# [5] = molecular target: T1, HLA-A*02:01 class I complex …; assay: UV peptide exchange, HLA class I ELISA, % of Pos peptide; remark: listed apart in the source
# Text: as §1, §2
Binder,Average % [1] [%],Exch I (%) [1] [%],Exch II (%) [1] [%],average relative binding (%) [2] [%],Mutant Binding [3] [%],average relative binding (%) [4] [%],average relative binding (%) [5] [%]
ALNNMFCQV (also called M161) [TP53_K132N5 mimic peptide ALNNMFCQV],69.3,69.7,68.8,61 to 69,–,–,–
ALNNMFCQL (also called M160) [TP53.K132N mutant peptide ALNNMFCQL],41.3,39.6,43.1,–,41.3,41 to 49,–
GLKDLLNPI (also called M080) [PIK3CA.E453K mutant peptide GLKDLLNPI],79.4,73.8,84.9,70 to 79,–,–,–
LLGRNSFEM (also called M220) [TP53.V272M mutant peptide LLGRNSFEM],50.9,58.8,42.9,–,50.9,–,–
SMTCTYFPV (also called M213) [TP53_S127F7 mimic peptide SMTCTYFPV],88.4,83.4,93.3,80 to 88,–,–,–
SMTCTYFPI (also called M215) [TP53_S127F12 mimic peptide SMTCTYFPI],27.5,32.2,22.7,18 to 28,–,–,–
YMDSGIHFV (also called M033) [CTNNB1_S37F6 mimic peptide YMDSGIHFV],99.8,104,95.5,90 to 100,–,–,–
YLDSGIHFG (also called M030) [CTNNB1.S37F mutant peptide YLDSGIHFG],53.4,53.7,53.2,–,53.7,–,–
YQGSYGFLL (also called M200) [TP53.R110L mutant peptide YQGSYGFLL],11.9,14.3,9.6,–,–,–,< 15
YQGSYGFLV (also called M202) [TP53_R110L4 mimic peptide YQGSYGFLV],49.6,53.6,45.6,–,–,50 to 58,–
YQGSYGFLI (also called M201) [TP53_R110L3 mimic peptide YQGSYGFLI],8.9,7.1,10.8,–,–,–,< 15
QLWVDSTPL (also called M180) [TP53.P152L mutant peptide QLWVDSTPL],86.2,84.3,88.1,–,86.2,–,–
KLYPVQLWV (also called M131) [TP53_C141Y2 mimic peptide KLYPVQLWV],81.9,84.1,79.8,–,–,80 to 88,–
KMYPVQLWL (also called M133) [TP53_C141Y8 mimic peptide KMYPVQLWL],112,122,103,102 to 113,–,–,> 100
KTYPVQLWV (also called M130) [TP53.C141Y mutant peptide KTYPVQLWV],68.9,66.6,71.2,–,68.9,–,–
CYLYYYSYLL (also called M101) [PTEN R173C2 mimic peptide CYLYYYSYLL],18.3,16.1,20.6,–,–,18 to 28,–
CYVYYYSYLL (also called M100) [PTEN.R173C mutant peptide CYVYYYSYLL],38.4,38.2,38.5,33 to 38,–,–,–
LLVVGAAGV (also called M051) [KRAS_G12A2 mimic peptide LLVVGAAGV],33.3,34.1,32.5,–,–,33 to 38,–
LMVVGACGV (also called M062) [KRAS_G12C3 mimic peptide LMVVGACGV],48.7,47.1,50.4,41 to 49,–,–,–
VVPCEPPEV (also called M230) [TP53.Y220C mutant peptide VVPCEPPEV],33.5,29.4,37.5,–,33.5,–,–
VMPCEPPEV (also called M232) [TP53_Y220C3 mimic peptide VMPCEPPEV],60.9,62.9,58.9,–,–,61 to 69,–
VLPCEPPEV (also called M231) [TP53_Y220C2 mimic peptide VLPCEPPEV],70,66.3,73.7,–,–,70 to 79,–
YLDCGIHSG (also called M020) [CTNNB1.S33C mutant peptide YLDCGIHSG],33.9,34.8,33,–,34.8,–,–
YLDCGIHSV (also called M022) [CTNNB1_S33C5 mimic peptide YLDCGIHSV],102,100,104,–,–,102 to 113,> 100
RLIHRDLAA (also called M240) [ERBB2.V842I mutant peptide RLIHRDLAA],7.2,6.8,7.7,–,–,–,< 15
VLSDAISAV (also called M121; SOX17_S40312) [SOX17_S403I2 mimic peptide VLSDAISAV],90.1,89.3,90.9,–,–,90 to 100,–
SVTCTYFPA (also called M210) [TP53.S127F mutant peptide SVTCTYFPA],8.6,7.7,9.4,–,–,–,< 15
ILNREIDFA (also called M090) [PIK3CA.G118D mutant peptide ILNREIDFA],50.4,53.1,47.8,–,50.4,–,–
NMDEYVHNL (also called M113) [SF3B1_R625H9 mimic peptide NMDEYVHNL],58.1,62,54.3,50 to 58,–,–,–
